PMC10397247

Experiments:
Test in all cases: two-hybrid library CCmax;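 further: natural log of median RNA to DNA barcode read ratio; higher means stronger binding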
4H2620-AA = molecular target: T1, 4H2620-AA
T1 chain: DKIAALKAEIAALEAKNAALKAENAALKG

4H2648-AA = molecular target: T2, 4H2648-AA; details: mean of both orientations
T2 chain: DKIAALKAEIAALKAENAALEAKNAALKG

4H2907-AA = molecular target: T3, 4H2907-AA; details: mean of both orientations
T3 chain: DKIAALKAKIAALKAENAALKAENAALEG

4H3056-AA = molecular target: T4, 4H3056-AA; details: mean of both orientations
T4 chain: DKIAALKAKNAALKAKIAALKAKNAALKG

4H3133-AA = molecular target: T5, 4H3133-AA; details: mean of both orientations
T5 chain: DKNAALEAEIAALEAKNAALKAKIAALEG

4H3162-AA = molecular target: T6, 4H3162-AA; details: mean of both orientations
T6 chain: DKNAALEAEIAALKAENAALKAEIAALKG

4H32-AA = molecular target: T7, 4H32-AA; details: mean of both orientations
T7 chain: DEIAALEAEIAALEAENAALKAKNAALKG

4H3378-AA = molecular target: T8, 4H3378-AA; details: mean of both orientations
T8 chain: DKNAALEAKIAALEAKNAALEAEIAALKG

4H340-AA = molecular target: T9, 4H340-AA; details: mean of both orientations
T9 chain: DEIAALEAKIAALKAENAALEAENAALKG

4H3413-AA = molecular target: T10, 4H3413-AA; details: mean of both orientations
T10 chain: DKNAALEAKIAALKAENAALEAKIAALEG

4H3588-AA = molecular target: T11, 4H3588-AA; details: mean of both orientations
T11 chain: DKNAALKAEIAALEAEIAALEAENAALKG

4H3606-AA = molecular target: T12, 4H3606-AA; details: mean of both orientations
T12 chain: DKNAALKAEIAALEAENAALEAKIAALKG

4H3631-AA = molecular target: T13, 4H3631-AA; details: mean of both orientations
T13 chain: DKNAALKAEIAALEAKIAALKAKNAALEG

4H3697-AA = molecular target: T14, 4H3697-AA
T14 chain: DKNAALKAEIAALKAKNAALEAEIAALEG

4H3718-AA = molecular target: T15, 4H3718-AA; details: mean of both orientations
T15 chain: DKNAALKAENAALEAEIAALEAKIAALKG

4H384-AA = molecular target: T16, 4H384-AA; details: mean of both orientations
T16 chain: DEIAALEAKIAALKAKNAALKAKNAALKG

4H3865-AA = molecular target: T17, 4H3865-AA; details: mean of both orientations
T17 chain: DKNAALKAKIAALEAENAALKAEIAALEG

4H697-AA = molecular target: T18, 4H697-AA; details: mean of both orientations
T18 chain: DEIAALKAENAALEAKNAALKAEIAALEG

4H982-AA = molecular target: T19, 4H982-AA; details: mean of both orientations
T19 chain: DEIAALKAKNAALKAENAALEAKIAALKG

4H2903-AA = molecular target: T20, 4H2903-AA
T20 chain: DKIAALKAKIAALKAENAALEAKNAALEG

4H2947-AA = molecular target: T21, 4H2947-AA; details: mean of both orientations
T21 chain: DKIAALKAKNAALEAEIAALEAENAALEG

4H2961-AA = molecular target: T22, 4H2961-AA; details: mean of both orientations
T22 chain: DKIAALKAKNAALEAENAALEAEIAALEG

4H3049-AA = molecular target: T23, 4H3049-AA; details: mean of both orientations
T23 chain: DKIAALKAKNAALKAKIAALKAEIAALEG

4H3094-AA = molecular target: T24, 4H3094-AA; details: mean of both orientations
T24 chain: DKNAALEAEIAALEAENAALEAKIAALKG

4H3129-AA = molecular target: T25, 4H3129-AA; details: mean of both orientations
T25 chain: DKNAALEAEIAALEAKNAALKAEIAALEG

4H324-AA = molecular target: T26, 4H324-AA; details: mean of both orientations
T26 chain: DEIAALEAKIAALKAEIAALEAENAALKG

4H341-AA = molecular target: T27, 4H341-AA; details: mean of both orientations
T27 chain: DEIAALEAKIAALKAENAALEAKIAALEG

4H3414-AA = molecular target: T28, 4H3414-AA; details: mean of both orientations
T28 chain: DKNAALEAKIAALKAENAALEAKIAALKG

4H3449-AA = molecular target: T29, 4H3449-AA; details: mean of both orientations
T29 chain: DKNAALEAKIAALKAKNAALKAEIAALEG

4H3595-AA = molecular target: T30, 4H3595-AA; details: mean of both orientations
T30 chain: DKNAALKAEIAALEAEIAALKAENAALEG

4H3619-AA = molecular target: T31, 4H3619-AA; details: mean of both orientations
T31 chain: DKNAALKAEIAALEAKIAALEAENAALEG

4H3629-AA = molecular target: T32, 4H3629-AA; details: mean of both orientations
T32 chain: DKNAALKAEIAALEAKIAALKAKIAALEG

4H3777-AA = molecular target: T33, 4H3777-AA; details: mean of both orientations
T33 chain: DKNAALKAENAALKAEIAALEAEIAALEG

4H3782-AA = molecular target: T34, 4H3782-AA; details: mean of both orientations
T34 chain: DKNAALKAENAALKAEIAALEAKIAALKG

4H380-AA = molecular target: T35, 4H380-AA; details: mean of both orientations
T35 chain: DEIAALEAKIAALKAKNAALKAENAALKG

4H3915-AA = molecular target: T36, 4H3915-AA; details: mean of both orientations
T36 chain: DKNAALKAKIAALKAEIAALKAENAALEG

4H3939-AA = molecular target: T37, 4H3939-AA; details: mean of both orientations
T37 chain: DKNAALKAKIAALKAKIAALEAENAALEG

4H3969-AA = molecular target: T38, 4H3969-AA; details: mean of both orientations
T38 chain: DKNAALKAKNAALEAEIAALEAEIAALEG

4H3974-AA = molecular target: T39, 4H3974-AA; details: mean of both orientations
T39 chain: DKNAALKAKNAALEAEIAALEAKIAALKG

4H432-AA = molecular target: T40, 4H432-AA; details: mean of both orientations
T40 chain: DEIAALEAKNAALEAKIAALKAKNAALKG

4H446-AA = molecular target: T41, 4H446-AA; details: mean of both orientations
T41 chain: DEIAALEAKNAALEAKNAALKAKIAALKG

4H464-AA = molecular target: T42, 4H464-AA; details: mean of both orientations
T42 chain: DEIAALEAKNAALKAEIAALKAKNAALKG

4H483-AA = molecular target: T43, 4H483-AA; details: mean of both orientations
T43 chain: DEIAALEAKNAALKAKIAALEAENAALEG

4H63-AA = molecular target: T44, 4H63-AA; details: mean of both orientations
T44 chain: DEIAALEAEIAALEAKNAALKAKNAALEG

4H3605-AA = molecular target: T45, 4H3605-AA
T45 chain: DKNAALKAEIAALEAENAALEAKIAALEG

4H3625-AA = molecular target: T46, 4H3625-AA; details: mean of both orientations
T46 chain: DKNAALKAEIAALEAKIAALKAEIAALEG

4H3664-AA = molecular target: T47, 4H3664-AA; details: mean of both orientations
T47 chain: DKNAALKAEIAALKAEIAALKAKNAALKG

4H369-AA = molecular target: T48, 4H369-AA; details: mean of both orientations
T48 chain: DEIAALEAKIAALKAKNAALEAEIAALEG

4H3922-AA = molecular target: T49, 4H3922-AA; details: mean of both orientations
T49 chain: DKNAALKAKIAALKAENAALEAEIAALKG

4H4033-AA = molecular target: T50, 4H4033-AA; details: mean of both orientations
T50 chain: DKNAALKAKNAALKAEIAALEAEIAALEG

4H481-AA = molecular target: T51, 4H481-AA; details: mean of both orientations
T51 chain: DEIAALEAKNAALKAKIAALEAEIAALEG

4H55-AA = molecular target: T52, 4H55-AA
T52 chain: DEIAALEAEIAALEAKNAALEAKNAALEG

4H662-AA = molecular target: T53, 4H662-AA; details: mean of both orientations
T53 chain: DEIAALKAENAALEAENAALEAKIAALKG

DKIAALKAEIAALEAKNAALKAENAALKG [4H2620-AA]
interaction score (4H2620-AA): 0.586
interaction score (4H2648-AA): 1.77
interaction score (4H2907-AA): 1.23
interaction score (4H3056-AA): -1.79
interaction score (4H3133-AA): -1.58
interaction score (4H3162-AA): -1.82
interaction score (4H32-AA): 1.05
interaction score (4H3378-AA): -1.66
interaction score (4H340-AA): 2.42
interaction score (4H3413-AA): -0.901
interaction score (4H3588-AA): 0.147
interaction score (4H3606-AA): -0.861
interaction score (4H3631-AA): -0.556
interaction score (4H3697-AA): -1.64
interaction score (4H3718-AA): -0.835
interaction score (4H384-AA): 0.949
interaction score (4H3865-AA): -1.61
interaction score (4H697-AA): -1.54
interaction score (4H982-AA): -0.887

DKIAALKAKIAALKAENAALEAKNAALEG [4H2903-AA]
interaction score (4H2903-AA): -1.28
interaction score (4H2947-AA): -1.62
interaction score (4H2961-AA): -1.88
interaction score (4H3049-AA): -1.81
interaction score (4H3094-AA): -0.448
interaction score (4H3129-AA): -0.64
interaction score (4H324-AA): -0.202
interaction score (4H341-AA): -0.593
interaction score (4H3414-AA): -1.72
interaction score (4H3449-AA): -1.8
interaction score (4H3595-AA): -0.655
interaction score (4H3619-AA): -0.237
interaction score (4H3629-AA): -0.902
interaction score (4H3777-AA): -1.22
interaction score (4H3782-AA): -1.31
interaction score (4H380-AA): 0.283
interaction score (4H3915-AA): -1.48
interaction score (4H3939-AA): -1.78
interaction score (4H3969-AA): -0.566
interaction score (4H3974-AA): -0.747
interaction score (4H432-AA): -1.38
interaction score (4H446-AA): -0.722
interaction score (4H464-AA): -1.44
interaction score (4H483-AA): -1.33
interaction score (4H63-AA): 2.45

DKNAALKAEIAALEAENAALEAKIAALEG [4H3605-AA]
interaction score (4H3605-AA): -1.34
interaction score (4H3625-AA): -0.874
interaction score (4H3664-AA): -1.67
interaction score (4H369-AA): 1.77
interaction score (4H3922-AA): -0.251
interaction score (4H4033-AA): -1.31
interaction score (4H481-AA): 0.557
interaction score (4H55-AA): -1.29
interaction score (4H662-AA): -1.77
